Data from PMC3463621.

Target: recombinant collagen α1(XI) amino terminal domain (NTD) (UniProt P20909)
Assay: SPR

Chain of UniProt P20909 (P20909 35-1561): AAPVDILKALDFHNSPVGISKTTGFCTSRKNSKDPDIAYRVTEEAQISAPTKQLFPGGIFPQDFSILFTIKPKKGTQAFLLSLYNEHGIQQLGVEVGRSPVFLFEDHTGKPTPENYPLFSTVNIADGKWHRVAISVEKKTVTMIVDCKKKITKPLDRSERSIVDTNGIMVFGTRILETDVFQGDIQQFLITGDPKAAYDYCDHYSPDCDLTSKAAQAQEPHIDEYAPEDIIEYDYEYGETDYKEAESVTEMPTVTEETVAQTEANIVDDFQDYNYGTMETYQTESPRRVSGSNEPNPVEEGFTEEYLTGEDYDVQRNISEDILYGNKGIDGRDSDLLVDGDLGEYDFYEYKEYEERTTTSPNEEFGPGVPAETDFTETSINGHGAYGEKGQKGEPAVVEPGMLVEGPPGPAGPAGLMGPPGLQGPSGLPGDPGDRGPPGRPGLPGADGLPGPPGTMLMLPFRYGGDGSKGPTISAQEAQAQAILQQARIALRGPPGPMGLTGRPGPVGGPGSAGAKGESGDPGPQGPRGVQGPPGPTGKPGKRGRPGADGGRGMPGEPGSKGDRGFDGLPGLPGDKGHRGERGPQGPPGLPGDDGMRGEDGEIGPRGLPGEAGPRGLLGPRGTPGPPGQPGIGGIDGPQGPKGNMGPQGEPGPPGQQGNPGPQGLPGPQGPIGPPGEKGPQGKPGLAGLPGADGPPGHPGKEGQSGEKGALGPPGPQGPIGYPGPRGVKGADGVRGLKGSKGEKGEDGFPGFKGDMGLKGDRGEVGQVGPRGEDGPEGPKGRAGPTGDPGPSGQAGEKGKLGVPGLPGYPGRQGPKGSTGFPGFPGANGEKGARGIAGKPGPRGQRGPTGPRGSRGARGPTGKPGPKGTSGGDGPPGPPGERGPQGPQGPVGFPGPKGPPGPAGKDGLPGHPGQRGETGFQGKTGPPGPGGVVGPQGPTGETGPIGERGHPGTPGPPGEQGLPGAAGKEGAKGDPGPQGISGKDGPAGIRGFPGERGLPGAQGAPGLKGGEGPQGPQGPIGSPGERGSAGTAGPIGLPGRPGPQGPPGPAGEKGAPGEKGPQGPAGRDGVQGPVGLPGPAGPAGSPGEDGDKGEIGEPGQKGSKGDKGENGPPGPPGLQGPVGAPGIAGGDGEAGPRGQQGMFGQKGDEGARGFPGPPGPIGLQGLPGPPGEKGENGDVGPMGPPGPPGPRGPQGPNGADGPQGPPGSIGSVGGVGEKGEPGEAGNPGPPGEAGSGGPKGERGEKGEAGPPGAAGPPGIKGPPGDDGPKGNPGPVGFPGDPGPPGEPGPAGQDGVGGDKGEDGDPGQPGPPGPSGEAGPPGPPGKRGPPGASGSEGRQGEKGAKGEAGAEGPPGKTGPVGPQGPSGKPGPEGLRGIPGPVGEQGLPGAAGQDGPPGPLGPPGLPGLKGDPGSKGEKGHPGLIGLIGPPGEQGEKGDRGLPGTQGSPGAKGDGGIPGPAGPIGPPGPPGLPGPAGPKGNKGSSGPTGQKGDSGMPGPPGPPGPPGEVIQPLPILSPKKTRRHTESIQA

Kd: 100 nM
Substance: Thrombospondin 1 (R&D Systems) (from UniProt P07996 19-1170) (natural protein)
